Source: patent US20100322948A1, “Bone morphogenetic protein (BMP)-binding domains of proteins of the repulsive guidance molecule (RGM) protein family and functional fragments thereof, and use of same” (ABBOTT GMBH & CO. KG, priority 2007, published 2010)
Ends that are not written are not given here.

Tests used:
[1] = system: BMP signalling (rhBMP-2-induced luciferase activity); test: BRE-Luc assay on BMP signalling in BMP-responsive C3H10-B12 cells; type: cell-based; conditions: combined with rhBMP-2 at 50 ng/ml, 24 h
Experimental: Evaluation of the Agonistic or Antagonistic Effect of h RMG A on BMP Signalling using BRE-Luc Assay
a) Materials: • Three compounds were provided at 200 μg/ml.
fragment #788 (IgK/hRGM A 47-422/Xa cleavage site/Fc) • recombinant h BMP-2 (from CHO cells; #355-BM) and monoclonal anti-human BMP2/4 antibodies (#MAB3552) were obtained from R&D Systems Europe, Lille, France • Bright-Glo Luciferase assay kit were purchased from Promega
All experiments were performed in triplicate, and were repeated at two separate times.

[2] = target: T1, BMP-4 (Homo sapiens, UniProt P12644); test: In vitro interaction test, variant A: immobilized BMP-4, detection of binding of RGMA-Fc fusion proteins; conditions: Working Example 3, FIG. 5; detection anti-human-Fc or anti-Myc
T1 construct: purchased R&D Systems 314-BM
T1 sequence (P12644 293-408): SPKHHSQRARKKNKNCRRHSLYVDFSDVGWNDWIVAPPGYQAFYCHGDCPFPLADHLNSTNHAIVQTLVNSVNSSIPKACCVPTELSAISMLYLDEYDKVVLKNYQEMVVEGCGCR
Experimental: Test Method 4: In Vitro Interaction Test for Determining the Interaction between RGMA and BMP-2 and -4
The interaction tests were carried out as described below:
Variant A: Immobilization of the BMP-2/ or -4 Protein and Detection of the Binding of Various RGMA-Fc Fusion Proteins
1. Plate: • Immunoplate Cert. MaxiSorp F96 (Nunc, 439454)
Recombinant human BMP-2, Catalog No.: 355-BM, Company: R&D Systems; Recombinant human RGM A, R&D Systems; Prod. #2495-RM, or
Recombinant human BMP-4, Catalog No.: 314-BM, Company: R&D Systems; • Concentration: 10 μg/mL • Volume used: 2.5 μg/mL in Na2CO3; addition: 50 μL per well • 1 hour at 37° C. in damp chamber
3. Washing step: • Wash 3× with PBS/[…] Tween 20
4. Blocking: • 3% BSA in PBS/0.02% Tween, 1 hour at 37° C. in damp chamber; addition: 200 μL per well
RGMA-Fc fragments, • 1 μg/mL initial concentration, then dilution down to 1:2 using PBS/0.02% Tween20 • […] • 1 hour at 37° C. in damp chamber
6. Washing step: • Wash 3× with PBS/0.02% Tween 20
Biotin anti-human Fc (R&D-Systems), Catalog No.: 709065; 1 mg/mL; • 1:200 in 0.6% BAS/PBS-T (0.02% Tween) • Addition: 50 μL per well • 1 hour at 37° C. in damp chamber
8. Secondary antibody: Strep. POD (Roche); Catalog No.: 11089153001 • 500 U; 1:5000 in 0.6% BAS/PBS-T (0.02% Tween) • Addition: 50 μL per well • 1 hour at 37° C. in damp chamber
9. Washing step: • Wash 3× with PBS/0.02% Tween 20
ImmunoPure TMB substrate kit; Pierce, #34021 • Development period: approximately 1-30 minutes • 1:1 mixture of […]; addition: 50 μL per well
11. Stop: • 2.5 M H2SO4; addition: 50 μL per well
The test was conducted according to test method 4, variant A above, with immobilization of BMP-4 (1 mg/mL). The binding of the fusion proteins was detected using anti-human-Fc or anti-Myc anti-rabbit (Invitrogen) antibodies.
The test was conducted according to test method 4, variant A above, with immobilization of BMP-4 (1 mg/mL). The binding of the fusion proteins was detected using anti-human-antibodies.

[3] = target: T2, Recombinant human BMP-4 (human, UniProt P12644 293-408); test: ELISA, BMP-4 immobilised, fragment titrated, detection with anti-human Fc antibody
T2 construct: Bought protein; also called hBMP-4
T2 sequence (looked up): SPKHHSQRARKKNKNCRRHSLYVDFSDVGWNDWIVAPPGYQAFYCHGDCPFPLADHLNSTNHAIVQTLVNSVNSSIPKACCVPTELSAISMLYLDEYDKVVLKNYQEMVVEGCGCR
Text: The binding of the fusion proteins was detected using anti-human-antibodies.

[4] = system: SH-SY5Y cells; test: Neurite growth assay using SH-SY5Y cells (test method 1); type: cell-based, human; conditions: FIG. 7A
Text: Test Method 1: Illustration of the Effect of RGM Peptides in the Neurite Growth Assay, Using SH-SY5Y Cells
SH-SY5Y cells are human neuroblastoma cells. Blastomas are embryonic tumors which originate during tissue and organ formation. The origin of the blastoma cells is frequently unknown, since in early embryonic states the differentiation of many cells is still premature; i.e., the blastoma cells are a heterogeneous cell population. The cells of a neuroblastoma, referred to as neuroblasts, originate from the neural crest (structure of the embryonic state) from the autonomous nerve tissue, and are practically arrested in an immature stage. The cells in the present case originated from a clonal subculture of the neuroepitheliomal cell line SK-N-SH which were isolated in 1970 in a bone marrow biopsy of a child with metastases of the neuroblastomas.
Culture Medium for SH-SY5Y Cells (ECACC No. 94030304)
The medium was sterile-filtered using a Nunc 500-mL filter, and was stored in a refrigerator at 4° C. until used. Before use, the medium was heated to 37° C. in a water bath.
SH-SY5Y cells are epithelial, neuron-like cells which slowly adherently grow in a monolayer and never attain a confluence of 100% (maximum 80%). The cell culture was split 1:3 two times per week. Isolation of the cells requires incubation with trypsin for 1-3 minutes in an incubator.
Since this is a population of still immature precursor cells, it is possible to differentiate the cells using retinoic acid, so that a certain percentage of the cells acquire neurite-like extensions. For this purpose the culture was incubated in the medium with 10 μM retinoic acid directly in the culture dish or flask, depending on the test, for 3 days.
Microtiter plates (96-well) (containing collagen I-coated plates) were additionally coated with the hRGM A fragments. After washing two times with PBS the cells were seeded. […] In the quantitative analysis the SH-SY5Y cells grown on hRGM A fragments were compared to SH-SY5Y grown on collagen I alone. The neurite length of the cells was automatically measured and used for the analysis. […]

[5] = system: NTera-2 cells; test: Neurite growth test using NTera-2 cells (test method 2); type: cell-based, human; conditions: FIG. 7B
Text: Test Method 2: Illustration of the Effect of RGM Peptides in the Neurite Growth Test, Using NTera-2 Cells
The human pluripotent cancer cell line NTera2 (DSMZ ACC527) is established as a cell culture model. Neurites grow from cell aggregates and form a corona of neurites around the particular aggregate.
NTera-2 cells are human embryonic teratocarcinoma cells. A carcinoma is a cancerous tumor, whereas a teratoma or teratocarcinoma is a mixed tumor of the germ cells composed of various differentiated and undifferentiated tissues, and therefore, the same as for the SH-SY5Y culture, comprises a heterogeneous population. The tumor is usually present in an encapsulated form in the various types, such as hair, skin, teeth, muscle, and nerve tissue. The tumors typically originate in the ovaries, testes, abdominal cavity, or brain. The cell line was cloned from the Tera-2 line, obtained from a metastatic teratocarcinoma in a person.
NTera-2 cells are epithelial, adherently growing cells which form a monolayer. Due to the large number of granular particles which they contain, NTera-2 cells may be easily differentiated from the other cells. The cells were cultivated by 1:5 splitting twice a week. The cells of this mixed culture may be differentiated using retinoic acid in neuronal cells.
Culture Medium Fur Growth […]
In order to differentiate the cells it was necessary to introduce antibiotic into the culture medium of the cell line due to the fact that the cells remained in the same culture flask for three weeks. Previously, the undifferentiated culture had been detrypsinated and the cell count determined using a Neubauer counting chamber. […] 25 μL retinoic acid (10 μM) was readded to the medium under dim light conditions. […]
The culture was stored in an incubator at 37° C. with 5% CO2 gassing, and the medium was changed at the beginning and at the end of the week. […] After three weeks the cells were differentiated and were ready for use in experiments. […]
Different plate formats were used for the tests. For the isolation of protein, 6-well plates were necessary for recovering a sufficient quantity. […]

With “fragment #785: Fc fusion protein of human RGM A amino acids 47-90 (PCKILKCNSEFWSATSGSHAPASDDTPEFCAALRSYALCTRRTA; cysteine pairing not given here; also: Fc fusion protein (dimerising Fc))” as the molecule, how does the “effect on BMP-2-induced luciferase activity” value [1] read?
Its value is “did not significantly modify”.

What about the “binding to immobilized BMP-4” value [2] of the same molecule?
The value was “Significant concentration-dependent binding”.

B1: 47-90-Fc (#785) (Fc fusion)
chain: PCKILKCNSEFWSATSGSHAPASDDTPEFCAALRSYALCTRRTA
notes: Expressed in HEK293F cells; IgK leader left out; also called fragment 47-90; not shown: Factor Xa site from the vector; human IgG Fc (hIgG lambda hc 257-Stop)
Does B1 bind [3]?
Result: binds

B2: 316-386-Fc (#790) (Fc fusion)
chain: LRGCPLNQQIDFQAFHTNAEGTGARRLAAASPAPTAPETFPYETAVAKCKEKLPVEDLYYQACVFDLLTTG
notes: also called fragment #790; not shown: Factor Xa site from the vector; human IgG Fc (hIgG lambda hc 257-Stop)
Does B2 bind [3]?
Result: binds

B3: fragment #790: Fc fusion protein of human RGM A amino acids 316-386 (protein)
chain: LRGCPLNQQIDFQAFHTNAEGTGARRLAAASPAPTAPETFPYETAVAKCKEKLPVEDLYYQACVFDLLTTG
modifications: left off: small tags and cut ends; a dimerising Fc or GST
With B3 as the molecule, how does the “inhibition of neurite growth” value [4] read?
The value was “inhibit the neurite growth”.

What about the “inhibition of neurite growth” value [5] of the same molecule?
Its value is “inhibit the neurite growth”.

And the “binding to immobilized BMP-4” value [2]?
The value was “Significant concentration-dependent binding”.
